Experimental data from the supplement of paper PMC11780869.

Test system: Bacillus subtilis
Experiment: cleaved RNA product abundance (RNA/gDNA barcode ratio) relative to median wild-type variant (ratio to wild type); higher = more accumulation of the downstream cleavage product
Conditions: cleavage site: cggR-gapA (positions -7 to +36 mutated)
Procedure: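 MPRA in B. subtilis. Mutagenized RNase Y cleavage-site regions (9% mutation rate) were inserted into a barcoded reporter mRNA (truncated aprE or tetM). Cells were grown in LB at 37°C to OD600 0.3. The cleaved RNA isoform was gel-purified and its barcodes counted; the RNA:gDNA barcode ratio was normalised to the median wild-type variant, and the median over barcodes is reported per variant. The printed sequence is the variable window only; the reporter flanks are not printed.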

[1] = experiment (reporter, strain, medium): exp 2b: truncated aprE reporter, strain BJT200
[2] = experiment (reporter, strain, medium): exp 4a: truncated aprE reporter, strain BJT201 with 2% xylose (RNase J1 expressed)
[3] = experiment (reporter, strain, medium): exp 6: tetM reporter, strain 168

Sequence	cleaved RNA product abundance [1]	cleaved RNA product abundance [2]	cleaved RNA product abundance [3]
ACAGACGAAGGAGCCGCAAAAAAGTTATTAAGGGATGAATAATCCCTCAAAATAAATATCTCTCACTTATTTAAA	0.349	0.376	
ACAGACGAAGGAGCCGCAAAAAAGTTATTAAGGGATGAATAATCCCTCAACATAAATATCTCTCACTTATTTAAA	0.239	0.272	
ACAGACGAAGGAGCCGCAAAAAAGTTATTAAGGGATGAATAATCCCTCAAGATAAATATCTCTCACTTATTTAAA	0.251		
ACAGACGAAGGAGCCGCAAAAAAGTTATTAAGGGATGAATAATCCCTCAATACAAATATCTCTCACTTATTTAAA		0.0755	
ACAGACGAAGGAGCCGCAAAAAAGTTATTAAGGGATGAATAATCCCTCAATATAAAAATCTCTCACTTATTTAAA	1.08	0.82	
ACAGACGAAGGAGCCGCAAAAAAGTTATTAAGGGATGAATAATCCCTCAATATAAACATCTCTCACTTATTTAAA		0.766	
ACAGACGAAGGAGCCGCAAAAAAGTTATTAAGGGATGAATAATCCCTCAATATAAAGATCTCTCACTTATTTAAA		0.56	
ACAGACGAAGGAGCCGCAAAAAAGTTATTAAGGGATGAATAATCCCTCAATATAAATAACTCTCACTTATTTAAA		1.13	
ACAGACGAAGGAGCCGCAAAAAAGTTATTAAGGGATGAATAATCCCTCAATATAAATACCTCTCACTTATTTAAA		0.493	
ACAGACGAAGGAGCCGCAAAAAAGTTATTAAGGGATGAATAATCCCTCAATATAAATATCTCTCACTTATTTAAA	1.06	1.04	1.04
ACAGACGAAGGAGCCGCAAAAAAGTTATTAAGGGATGAATAATCCCTCAATATAAATCTCTCTCACTTATTTAAA		0.362	
ACAGACGAAGGAGCCGCAAAAAAGTTATTAAGGGATGAATAATCCCTCAATATAAATGTCTCTCACTTATTTAAA	0.243	0.309	
ACAGACGAAGGAGCCGCAAAAAAGTTATTAAGGGATGAATAATCCCTCAATATAAATTTCTCTCACTTATTTAAA		1.04	
ACAGACGAAGGAGCCGCAAAAAAGTTATTAAGGGATGAATAATCCCTCAATATACATATCTCTCACTTATTTAAA		0.996	
ACAGACGAAGGAGCCGCAAAAAAGTTATTAAGGGATGAATAATCCCTCAATATAGATATCTCTCACTTATTTAAA	0.991	0.644	
ACAGACGAAGGAGCCGCAAAAAAGTTATTAAGGGATGAATAATCCCTCAATATATATATCTCTCACTTATTTAAA		1.08	
ACAGACGAAGGAGCCGCAAAAAAGTTATTAAGGGATGAATAATCCCTCAATATGAATATCTCTCACTTATTTAAA	0.135		
ACAGACGAAGGAGCCGCAAAAAAGTTATTAAGGGATGAATAATCCCTCAATCTAAATATCTCTCACTTATTTAAA	0.137		
ACAGACGAAGGAGCCGCAAAAAAGTTATTAAGGGATGAATAATCCCTCACTATAAATATCTCTCACTTATTTAAA		0.537	

Sequence	cleaved RNA product abundance [1]	cleaved RNA product abundance [2]	cleaved RNA product abundance [3]
ACAGACGAAGGAGCCGCAAAAAAGTTATTAAGGGATGAATAATCCCTCAGTATAAATATCTCTCACTTATTTAAA	0.266	0.42	
ACAGACGAAGGAGCCGCAAAAAAGTTATTAAGGGATGAATAATCCCTCATTATAAATATCTCTCACTTATTTAAA	0.293	0.417	
ACAGACGAAGGAGCCGCAAAAAAGTTATTAAGGGATGAATAATCCCTCCATATAAATATCTCTCACTTATTTAAA		0.348	
ACAGACGAAGGAGCCGCAAAAAAGTTATTAAGGGATGAATAATCCCTCGATATAAATATCTCTCACTTATTTAAA	0.396	0.555	
ACAGACGAAGGAGCCGCAAAAAAGTTATTAAGGGATGAATAATCCCTCTATATAAATATCTCTCACTTATTTAAA		0.613	
ACAGACGAAGGAGCCGCAAAAAAGTTATTAAGGGATGAATAATCCCTGAATATAAAGATCTCTCACTTATTTAAA	0.364		
ACAGACGAAGGAGCCGCAAAAAAGTTATTAAGGGATGAATAATCCCTGAATATAAATATCTCTCACTTATTTAAA		0.427	
ACAGACGAAGGAGCCGCAAAAAAGTTATTAAGGGATGAATAATCCCTTAATATAAATATCTCTCACTTATTTAAA		0.394	
ACAGACGAAGGAGCCGCAAAAAAGTTATTAAGGGATGAATAATCCGTCAATATAAATATCTCTCACTTATTTAAA	0.168	0.242	
ACAGACGAAGGAGCCGCAAAAAAGTTATTAAGGGATGAATAATCCTTCAATATAAATATCTCTCACTTATTTAAA	0.395	0.678	
ACAGACGAAGGAGCCGCAAAAAAGTTATTAAGGGATGAATAATCTCTCAATATAAATATCTCTCACTTATTTAAA	0.703	0.694	0.897
ACAGACGAAGGAGCCGCAAAAAAGTTATTAAGGGATGAATAATTCCTCAATATAAATATCTCTCACTTATTTAAA	0.68	0.814	
ACAGACGAAGGAGCCGCAAAAAAGTTATTAAGGGATGAATAATTCCTCTATATAAATATCTCTCACTTATTTAAA		0.264	
ACAGACGAAGGAGCCGCAAAAAAGTTATTAAGGGATGAATACTCCCTCAATATAAATATCTCTCACTTATTTAAA	0.519	0.58	
ACAGACGAAGGAGCCGCAAAAAAGTTATTAAGGGATGAATAGTCCCTCAATATAAATATCTCTCACTTATTTAAA	0.786	0.961	
ACAGACGAAGGAGCCGCAAAAAAGTTATTAAGGGATGAATATTCCCTCAATATAAATATCTCTCACTTATTTAAA	0.665	0.566	
ACAGACGAAGGAGCCGCAAAAAAGTTATTAAGGGATGAATCATCCCTCAATATAAATATCTCTCACTTATTTAAA		1.01	
ACAGACGAAGGAGCCGCAAAAAAGTTATTAAGGGATGAATTATCCCTCAATATAAATATCTCTCACTTATTTAAA		0.808	
ACAGACGAAGGAGCCGCAAAAAAGTTATTAAGGGATGACTAATCCCTCAATATAAATATCTCTCACTTATTTAAA	0.504	0.61	

Sequence	cleaved RNA product abundance [1]	cleaved RNA product abundance [2]	cleaved RNA product abundance [3]
ACAGACGAAGGAGCCGCAAAAAAGTTATTAAGGGATGAGTAATCCCTCAATATAAATATCTCTCACTTATTTAAA	0.481	0.415	
ACAGACGAAGGAGCCGCAAAAAAGTTATTAAGGGATGCATAATCCCTCAATATAAATATCTCTCACTTATTTAAA	0.986	1.02	
ACAGACGAAGGAGCCGCAAAAAAGTTATTAAGGGATGTATAATCCCTCAATATAAATATCTCTCACTTATTTAAA	1.06	1.09	
ACAGACGAAGGAGCCGCAAAAAAGTTATTAAGGGATTAATAATCCCTCAATATAAATATCTCTCACTTATTTAAA	1.51	0.881	
ACAGACGAAGGAGCCGCAAAAAAGTTATTAAGGGCTGAATAATCCCTCAATATAAATATCTCTCACTTATTTAAA	0.478	0.694	
ACAGACGAAGGAGCCGCAAAAAAGTTATTAAGGGGTGAATAATCCCTCAATATAAATATCTCTCACTTATTTAAA	0.759	0.602	
ACAGACGAAGGAGCCGCAAAAAAGTTATTAAGGGTTGAATAATCCCTCAATATAAATATCTCTCACTTATTTAAA	0.373	0.512	
ACAGACGAAGGAGCCGCAAAAAAGTTATTAAGGTATAAATAATCCCTCAATATAAATATCTCTCACTTATTTAAA		0.0805	
ACAGACGAAGGAGCCGCAAAAAAGTTATTAAGGTATGAATAATCCATCAATATAAATATCTCTCACTTATTTAAA		0.23	
ACAGACGAAGGAGCCGCAAAAAAGTTATTAAGGTATGAATAATCCCTCAATATAAATATCTCTCACTTATTTAAA	0.121	0.17	
ACAGACGAAGGAGCCGCAAAAAAGTTATTAAGTGATGAATAATCCCTCAATATAAATATCTCTCACTTATTTAAA	0.119	0.0972	
ACAGACGAAGGAGCCGCAAAAAAGTTATTAATGGATGAATAATCCCTCAATATAAATATCTCTCACTTATTTAAA	0.0715	0.149	
ACAGACGAAGGAGCCGCAAAAAAGTTATTAATGGCTGAATAATCCCTCAATATAAATATCTCTCACTTATTTAAA		0.0935	
ACAGACGAAGGAGCCGCAAAAAAGTTATTACGGGATGAATAATCCCTCAATATAAATATCTCTCACTTATTTAAA	0.329	0.364	
ACAGACGAAGGAGCCGCAAAAAAGTTATTAGGGGATGAATAATCCCTCAATATAAATATCTCTCACTTATTTAAA		0.608	
ACAGACGAAGGAGCCGCAAAAAAGTTATTATGGGATGAATAATCCCTCAATATAAATATCTCTCACTTATTTAAA	0.323	0.334	
ACAGACGAAGGAGCCGCAAAAAAGTTATTCAGGGATGAATAATCCCTCAATATAAATATCTCTCACTTATTTAAA		0.962	
ACAGACGAAGGAGCCGCAAAAAAGTTATTTAGGGATGAATAATCCCTCAATATAAATATCTCTCACTTATTTAAA		0.552	
